# Values joined by “and” are separate entries in the source; they are usually repeats but may differ in a detail not shown here. Identical values can stand only once.
# What was measured:
# [1] = molecular target: HAstV1 capsid spike domain, Avitag-biotinylated (human astrovirus 1 (HAstV1), UniProt O12792 433-645, biotin on the Avitag); experiment: BLI; biosensors loaded with biotinylated HAstV1 spike (streptavidin, as in Fig. 1a); human or mouse FcRn in solution, 500, 250, 125, 62.5 nM; pH 7.0 (0.1 M sodium phosphate, 150 mM NaCl, 0.05% Tween-20), 25 °C; 1:1 model; average of three replicates; settings: both partners purified
# [2] = molecular target: T1, neonatal Fc receptor (FcRn), recombinant human ectodomain heterodimer of FcRn α-chain and β2 microglobulin, … (human, UniProt P55899;P61769, biotin on the AviTag (where FcRn was loaded on streptavidin biosensors)); experiment: BLI; HAstV1 spike loaded, FcRn mutants in solution at 500, 250, 125, 62.5 and 31.25 nM; pH 7.0; 1:1 model; settings: both partners purified
# T1 construct: also called human FcRn; wild-type FcRn; source: CHO-S, electroporated, purified from the medium (StrepTrap XT); not shown: AviTag, C-terminal, kept
# [3] = molecular target: T2, human FcRn mutant T149N_G151T (ectodomain heterodimer with β2M) (human, UniProt P55899 24-297; P61769 21-119, T149N | G151T); experiment: as above; settings: both partners purified
# T2 construct: signal peptide in the construct; ectodomain of the FcRn α-chain (FCGRT gene), Met1-Ser297 of UniProt P55899; β-2-microglobulin, Met1-Met119 of UniProt P61769; The change brings in the N-linked glycosylation site of mouse FcRn; source: CHO-S, electroporated, purified from the medium (StrepTrap XT)
# [4] = molecular target: T3, human FcRn mutant D153E (ectodomain heterodimer with β2M) (human, UniProt P55899 24-297; P61769 21-119, D153E); experiment: as above; settings: both partners purified
# T3 construct: signal peptide in the construct; ectodomain of the FcRn α-chain (FCGRT gene), Met1-Ser297 of UniProt P55899; β-2-microglobulin, Met1-Met119 of UniProt P61769; source: CHO-S, electroporated, purified from the medium (StrepTrap XT)
# [5] = molecular target: T1, neonatal Fc receptor (FcRn), …; experiment: BLI; HIS1K biosensors loaded with 10x histidine-tagged spike, FcRn in solution at 1000, 500, 250, 125 and 62.5 nM; pH 7.0 buffer, 25 °C; 1:1 model; settings: both partners purified
# [6] = molecular target: T4, neonatal Fc receptor (FcRn), recombinant ectodomain heterodimer of FcRn α-chain and β2 microglobulin (human, UniProt P55899 24-297; P61769 21-119); experiment: BLI; streptavidin biosensors loaded with Avitag-biotinylated HAstV1 spike K467H (3 ug/mL), dipped into FcRn (2000 nM in the shown replicate); pH 7.0 (0.1 M sodium phosphate, 150 mM NaCl, 0.05% Tween-20); 25 °C; 1:1 binding model; triplicate; settings: both partners purified
# T4 construct: signal peptide in the construct; ectodomain of the wild-type FCGRT gene (FcRn α-chain), human, UniProt P55899, Met1-Ser297; followed by a C-terminal thrombin cleavage site before the tags; β-2-microglobulin (β2M), human, UniProt P61769, Met1-Met119; Tags were removed with thrombin only for crystallization; nothing is said of their removal for BLI; also called human FcRn; wild-type FcRn; source: …
# [7] = molecular target: T4, neonatal Fc receptor (FcRn), …; experiment: BLI; streptavidin biosensors loaded with Avitag-biotinylated HAstV1 spike K467H, dipped into FcRn; pH 5.0 (0.1 M sodium acetate, 150 mM NaCl, 0.05% Tween-20); 25 °C; 1:1 binding model; triplicate; settings: both partners purified
# [8] = molecular target: the molecule itself; experiment: crystal structure; FcRn-HAstV1 spike complex, tags removed, 3.4 Å; hanging drop, 0.1 M NaCl, 0.1 M Bis-Tris:HCl pH 6.1, 1 M ammonium sulfate
# [9] = molecular target: T1, neonatal Fc receptor (FcRn), …; experiment: BLI; streptavidin biosensors loaded with Avitag-biotinylated spike, FcRn in solution (500-62.5 nM for the wild type); pH 5.0 (0.1 M sodium acetate, 150 mM NaCl, 0.05% Tween-20), 25 °C; 1:1 model; settings: both partners purified
# [10] = molecular target: T1, neonatal Fc receptor (FcRn), …; experiment: BLI; streptavidin biosensors loaded with Avitag-biotinylated spike, FcRn in solution (500-62.5 nM for the wild type); pH 7.0 (0.1 M sodium phosphate, 150 mM NaCl, 0.05% Tween-20), 25 °C; 1:1 model; settings: both partners purified
binder,measurement,setting,value
recombinant mouse FcRn (receptor) chain 1: SETRPPLMYHLTAVSNPSTGLPSFWATGWLGPQQYLTYNSLRQEADPCGAWMWENQVSWYWEKETTDLKSKEQLFLEALKTLEKILNGTYTLQGLLGCELASDNSSVPTAVFALNGEEFMKFNPRIGNWTGEWPETEIVANLWMKQPDAARKESEFLLNSCPERLLGHLERGRRNLEWKEPPSMRLKARPGNSGSSVLTCAAFSFYPPELKFRFLRNGLASGSGNCSTGPNGDGSFHAWSLLEVKRGDEHHYQCQVEHEGLAQPLTVDLDSSARSS chain 2: IQKTPQIQVYSRHPPENGKPNILNCYVTQFHPPHIEIQMLKNGKKIPKVEMSDMSFSKDWSFYILAHTEFTPTETDTYACRVKHASMAEPKTVYWDRDM,Kd,[1],58 nM
same,koff,[1],0.003 s⁻¹
same,kon,[1],52000 M⁻¹ s⁻¹
"HAstV1 capsid spike domain, 10x histidine-tagged (domain or fragment, capsid spike domain of the HAstV1 capsid protein (ORF2), UniProt O12792; also called HAstV1 spike; WT; source: E. coli T7Express, purified (HisPur cobalt resin); not shown: His10, C-terminal, kept) KVVLTFGAPMSPNANNKQTWVNKPLDAPSGHYNVKIAKDVDHYLTMQGFTSIASVDWYTIDFQPSEAPAPIQGLQVLVNISKKADVYAIKQFVTAQTNNKHQVTSLFLVKVTTGFQVNNYLSYFYRASATGDATTNLLVRGDTYTAGISFTQGGWYLLTNTSIVDGAMPPGWVWNNVELKTNTAYHMDKGLVHLIMPLPESTQMCYEMLTSIP",Kd,[2],230 nM
same,Kd,[3],500 nM
same,Kd,[4],1600 nM
same,Kd,[5],270 nM
same,koff,[5],0.014 s⁻¹
same,kon,[5],52000 M⁻¹ s⁻¹
"HAstV1 capsid spike mutant K467H, Avitag-biotinylated (domain or fragment, biotin on the Avitag, also called HAstV1_K467H spike; HAstV1 spike K467H; source: T7Express E. coli, purified (HisPur cobalt resin); not shown: Avitag, C-terminal, kept) KVVLTFGAPMSPNANNKQTWVNKPLDAPSGHYNVHIAKDVDHYLTMQGFTSIASVDWYTIDFQPSEAPAPIQGLQVLVNSSKKADVYAIKQFVTAQTNNKHQVTSLFLVKVTTGFQVNNYLSYFYRASATGDATTNLLVRGDTYTAGISFTQGGWYLLTNTSIVDGAMPPGWVWNNVELKTNTAYHMDKGLVHLIMPLPESTQMCYEMLTSIP",Kd,[6],19200 nM and 21500 nM and 26800 nM
same,koff,[6],0.239 s⁻¹ and 0.259 s⁻¹ and 0.236 s⁻¹
same,kon,[6],12500 M⁻¹ s⁻¹ and 12000 M⁻¹ s⁻¹ and 8800 M⁻¹ s⁻¹
same,Kd,[7],447 nM and 869 nM and 1040 nM
same,koff,[7],0.033 s⁻¹ and 0.0561 s⁻¹ and 0.0625 s⁻¹
same,kon,[7],73900 M⁻¹ s⁻¹ and 64500 M⁻¹ s⁻¹ and 60200 M⁻¹ s⁻¹
"HAstV1 capsid spike domain, tag removed with thrombin (domain or fragment, capsid spike domain of the HAstV1 capsid protein (ORF2), UniProt O12792; Form used for the SEC complex and the crystal; also called HAstV1 spike; source: E. coli T7Express, purified (HisPur cobalt resin), tag removed with thrombin, SEC; not shown: His10, C-terminal, cleaved) KVVLTFGAPMSPNANNKQTWVNKPLDAPSGHYNVKIAKDVDHYLTMQGFTSIASVDWYTIDFQPSEAPAPIQGLQVLVNISKKADVYAIKQFVTAQTNNKHQVTSLFLVKVTTGFQVNNYLSYFYRASATGDATTNLLVRGDTYTAGISFTQGGWYLLTNTSIVDGAMPPGWVWNNVELKTNTAYHMDKGLVHLIMPLPESTQMCYEMLTSIP",stoichiometry N,[8],2
"HAstV1 capsid spike domain, Avitag-biotinylated (domain or fragment, biotin on the Avitag, capsid spike domain of the HAstV1 capsid protein (ORF2), UniProt O12792; it may carry a further tag for the cobalt resin; also called biotinylated HAstV1 spike; Avitag-biotinylated HAstV1 spike; source: E. coli T7Express, purified (HisPur cobalt resin)) KVVLTFGAPMSPNANNKQTWVNKPLDAPSGHYNVKIAKDVDHYLTMQGFTSIASVDWYTIDFQPSEAPAPIQGLQVLVNISKKADVYAIKQFVTAQTNNKHQVTSLFLVKVTTGFQVNNYLSYFYRASATGDATTNLLVRGDTYTAGISFTQGGWYLLTNTSIVDGAMPPGWVWNNVELKTNTAYHMDKGLVHLIMPLPESTQMCYEMLTSIP",Kd,[9],102 nM
same,Kd,[10],188 nM
"HAstV8 capsid spike domain, 10x histidine-tagged (domain or fragment, capsid spike domain of the HAstV8 capsid protein (ORF2); also called HAstV8 spike; source: E. coli T7Express, purified (HisPur cobalt resin); not shown: His10, C-terminal, kept) GEQFRVLLTVGPPMAPNTANSQNWVNKTIVPPENQYTVKIGIDLEHYTTMQGFTPVESVSWYTADFQPSDEPSPIPGLYARVNNTKKADVYGVQQFKSSHTNNRHQITSVFLVRVTTSFQVINYTSYFIRGAESGSNVSNLKIRDQTYHTPLQFTQGKWYLLTSTVMHDGPTSSGWVWMNQELTNNIAYRVDPGMMYLITPPPAASQLYFELHTVLPQA",Kd,[5],390 nM
same,koff,[5],0.03 s⁻¹
same,kon,[5],76000 M⁻¹ s⁻¹

# Source: paper PMC12583548 (Nature Communications, 2025)
